Data from patent publication US20230287598A1 (TAURUS BIOSCIENCES, published 2023).

B1: BLV1H12 IgG (antibody)
VH: QVQLRESGPSLVKPSQTLSLTCTASGFSLSDKAVGWVRQAPGKALEWLGSIDTGGNTGYNPGLKSRLSITKDNSKSQVSLSVSSVTTEDSATYYCTSVHQETKKYQSCPDGYRERSDCSNRPACGTSDCCRVSVFGNCLTTLPVSYSYTYNYEWHVDVWGQGLLVTVSS
light: not shown
notes: also called ULcowV
B2: VH1-24+CDR3-IL8 IgG (antibody)
VH: QVQLVQSGAEVKKPGASVKVSCKVSGYTLTELSMHWVRQAPGKGLEWMGGFDPEDGETIYAQKFQGRVTMTEDTSTDTAYMELSSLRSEDTAVYYCTSVHQETKKYQSPRSAKELRCQCIKTYSKPFHPKFIKELRVIESGPHCANTEIIVKLSDGRELCLDPKENWVQRVVEKFLKRAENSGSGSYTYNYEWHVDVWGQGLLVTVSSAS
light: not shown
notes: also called VH1-24 BLVCDR3IL8
B3: BLV1H12 GLLV 3xG4S ShK (antibody)
VH: QVQLRESGPSLVKPSQTLSLTCTASGFSLSDKAVGWVRQAPGKALEWLGSIDTGGNTGYNPGLKSRLSITKDNSKSQVSLSVSSVTTEDSATYYCTSVHQETKKYQSGGGGSGGGGSGGGGSGGRSCIDTIPKSRCTAFQCKHSMKYRLSFCRKTCGTCGGGGSGGGGSGGGGSSYTYNYEWHVDVWGQGLLVTVSSAS
light: not shown
B4: BLV1H12 GGS3:3 Moka (antibody)
VH: QVQLRESGPSLVKPSQTLSLTCTASGFSLSDKAVGWVRQAPGKALEWLGSIDTGGNTGYNPGLKSRLSITKDNSKSQVSLSVSSVTTEDSATYYCTSVHQETKKYQSGGSGGSGGSGINVKCSLPQQCIKPCKDAGMRFGKCMNKKCRCYSGGSGGSGGSSYTYNYEWHVDVWGQGLLVTVSSAS
light: not shown
B5: VH1-46+CDR3-IL8 IgG (antibody)
VH: QVQLVQSGAEVKKPGASVKVSCKASGYTFTSYYMHWVRQAPGQGLEWMGIINPSGGSTSYAQKFQGRVTMTRDTSTSTVYMELSSLRSEDTAVYYCTSVHQETKKYQSPRSAKELRCQCIKTYSKPFHPKFIKELRVIESGPHCANTEIIVKLSDGRELCLDPKENWVQRVVEKFLKRAENSGSGSYTYNYEWHVDVWGQGLLVTVSSAS
light: not shown
notes: also called VH1-46 BLVCDR3IL8

Legend:
CXCR1 [1] = molecular target: T1, CXCR1 (UniProt P25024 1-350, limits assumed); experiment: flow cytometry, CXCR1-U2OS / parental U2OS
T1 construct: whole, on cells; DiscoveRx PathHunter cell line; any reporter tag on the receptor is not described; also called CXCR1 receptor; CXCR1-U2OS
T1 sequence (looked up): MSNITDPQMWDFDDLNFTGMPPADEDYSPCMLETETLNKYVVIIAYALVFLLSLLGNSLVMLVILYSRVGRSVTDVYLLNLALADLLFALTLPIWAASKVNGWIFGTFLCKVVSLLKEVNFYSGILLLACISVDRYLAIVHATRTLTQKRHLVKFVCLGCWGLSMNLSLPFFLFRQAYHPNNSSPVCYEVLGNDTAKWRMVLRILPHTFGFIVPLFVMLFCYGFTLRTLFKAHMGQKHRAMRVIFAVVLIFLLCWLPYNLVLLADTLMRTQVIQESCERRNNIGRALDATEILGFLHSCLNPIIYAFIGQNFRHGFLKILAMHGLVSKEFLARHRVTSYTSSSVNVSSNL

CXCR1 [2] = molecular target: T1, CXCR1; experiment: flow cytometry on CXCR1-U2OS cells (parental U2OS: 5)
CXCR1 [3] = molecular target: T1, CXCR1; experiment: flow cytometry, median fluorescence CXCR1-U2OS / parental U2OS
Kv1.3 = Kv1.3 (human (T-cells from human blood donors), UniProt P22001 1-575); experiment: cell-based or functional assay
Sequence of Kv1.3 (P22001 whole entry): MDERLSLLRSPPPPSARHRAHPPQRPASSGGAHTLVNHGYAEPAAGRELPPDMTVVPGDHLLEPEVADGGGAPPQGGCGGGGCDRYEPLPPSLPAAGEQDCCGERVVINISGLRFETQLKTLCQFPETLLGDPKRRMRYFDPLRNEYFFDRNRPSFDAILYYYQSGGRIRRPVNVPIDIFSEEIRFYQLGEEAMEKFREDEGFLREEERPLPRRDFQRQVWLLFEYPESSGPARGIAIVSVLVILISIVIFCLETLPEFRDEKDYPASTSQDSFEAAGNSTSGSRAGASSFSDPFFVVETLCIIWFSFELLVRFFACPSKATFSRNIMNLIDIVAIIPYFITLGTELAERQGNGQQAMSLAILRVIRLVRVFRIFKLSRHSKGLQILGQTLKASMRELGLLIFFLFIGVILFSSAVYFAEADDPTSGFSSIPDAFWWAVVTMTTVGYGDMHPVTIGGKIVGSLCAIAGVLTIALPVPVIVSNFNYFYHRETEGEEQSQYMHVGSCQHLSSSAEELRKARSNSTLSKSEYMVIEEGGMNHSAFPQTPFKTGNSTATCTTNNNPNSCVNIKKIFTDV

Row | Binder | FACS CXCR1/Parental Ratio (CXCR1 [1]) | median AFU on CXCR1-U2OS (CXCR1 [2]) [AFU] | Ratio of CXCR1/Parental (CXCR1 [3]) | EC50 (nM), inhibition of T-cell activation, IL-2 secretion, Donor 1 (Kv1.3) [nM] | EC50 (nM), inhibition of T-cell activation, IL-2 secretion, Donor 2 (Kv1.3) [nM] | EC50 (nM), inhibition of T-cell activation, TNFα secretion, Donor 1 (Kv1.3) [nM] | EC50 (nM), inhibition of T-cell activation, TNFα secretion, Donor 2 (Kv1.3) [nM]
1 | B1 | 1.9 | 9 | 1.9 |  |  |  | 
2 | B2 |  | 23 |  |  |  |  | 
3 | B3 |  |  |  | 0.1 | 0.03 | 6.5 | 0.2
4 | B4 |  |  |  | 14.4 | 40.2 | 19.3 | 38.2
5 | B5 |  | 6 |  |  |  |  | 
